The supplement of paper PMC11246515
± gives the standard deviation of the averaged measurements.

Experiment: total protein half-life in vivo (active degradation + dilution); higher = more stable protein
[1] = E. coli NCM3722 delta-clpP delta-lon delta-hslV, growth: N-lim chemostat, doubling time 6 h
[2] = E. coli NCM3722 delta-clpP, growth: N-lim chemostat, doubling time 6 h
[3] = E. coli NCM3722 delta-hslV, growth: N-lim chemostat, doubling time 6 h
[4] = E. coli NCM3722 delta-lon, growth: N-lim chemostat, doubling time 6 h
[5] = E. coli NCM3722 delta-smpB, growth: N-lim chemostat, doubling time 6 h
[6] = wild type E. coli NCM3722, growth: C-lim chemostat, doubling time 3 h
[7] = wild type E. coli NCM3722, growth: C-lim chemostat, doubling time 6 h
[8] = wild type E. coli NCM3722, growth: C-lim chemostat, doubling time 12 h
[9] = wild type E. coli NCM3722, growth: N-lim chemostat, doubling time 6 h
[10] = wild type E. coli NCM3722, growth: N-lim chemostat, doubling time 12 h
[11] = wild type E. coli NCM3722, growth: P-lim chemostat, doubling time 6 h
[12] = wild type E. coli NCM3722, growth: P-lim chemostat, doubling time 12 h

Sequence | total protein half-life in vivo [1] [h] | total protein half-life in vivo [2] [h] | total protein half-life in vivo [3] [h] | total protein half-life in vivo [4] [h] | total protein half-life in vivo [5] [h] | total protein half-life in vivo [6] [h] | total protein half-life in vivo [7] [h] | total protein half-life in vivo [8] [h] | total protein half-life in vivo [9] [h] | total protein half-life in vivo [10] [h] | total protein half-life in vivo [11] [h] | total protein half-life in vivo [12] [h]
MSIIKEFREFAMRGNVVDLAVGVIIGAAFGKIVSSLVADIIMPPLGLLIGGIDFKQFAVTLRDAQGDIPAVVMHYGVFIQNVFDFLIVAFAIFMAIKLINKLNRKKEEPAAAPAPTKEEVLLTEIRDLLKEQNNRS [P0A742] | 5.9 ± 0.17 | 5.99 ± 0.24 | 6.46 ± 0.16 | 5.9 ± 0.71 | 6.222 ± 0.036 | 3.17 ± 0.14 | 6.12 ± 0.27 | 12.4 ± 1.9 | 6.41 ± 0.12 | 11.5 ± 2.5 | 5.8 ± 0.23 | 13.3 ± 1.1
MITNYEATVVTTDDIVHEVNLEGKRIGYVIKTENKETPFTVVDIDGPSGNVKTLDEGVKKMCLVHIGKNLPAEKKAEFLATLIAMKLKGEI |  |  |  |  |  |  | 5.13 | 10.3 |  |  |  | 
MALTKAEMSEYLFDKLGLSKRDAKELVELFFEEIRRALENGEQVKLSGFGNFDLRDKNQRPGRNPKTGEDIPITARRVVTFRPGQKLKSRVENASPKDE [P0A6X7] |  | 6.46 ± 1 |  | 7.06 ± 0.79 | 5.2 ± 0.41 | 3.249 ± 0.0028 |  |  | 5.83 ± 0.23 |  | 6.33 ± 0.39 | 11.7 ± 1.9
MELKATTLGKRLAQHPYDRAVILNAGIKVSGDRHEYLIPFNQLLAIHCKRGLVWGELEFVLPDEKVVRLHGTEWGETQRFYHHLDAHWRRWSGEMSEIASGVLRQQLDLIATRTGENKWLTREQTSGVQQQIRQALSALPLPVNRLEEFDNCREAWRKCQAWLKDIESARLQHNQAYTEAMLTEYADFFRQVESSPLNPAQARAVVNGEHSLLVLAGAGSGKTSVLVARAGWLLARGEASPEQILLLAFGRKAAEEMDERIRERLHTEDITARTFHALALHIIQQGSKKVPIVSKLENDTAARHELFIAEWRKQCSEKKAQAKGWRQWLTEEMQWSVPEGNFWDDEKLQRRLASRLDRWVSLMRMHGGAQAEMIASAPEEIRDLFSKRIKLMAPLLKAWKGALKAENAVDFSGLIHQAIVILEKGRFISPWKHILVDEFQDISPQRAALLAALRKQNSQTTLFAVGDDWQAIYRFSGAQMSLTTAFHENFGEGERCDLDTTYRFNSRIGEVANRFIQQNPGQLKKPLNSLTNGDKKAVTLLDESQLDALLDKLSGYAKPEERILILARYHHMRPASLEKAATRWPKLQIDFMTIHASKGQQADYVIIVGLQEGSDGFPAAARESIMEEALLPPVEDFPDAEERRLMYVALTRARHRVWALFNKENPSPFVEILKNLDVPVARKP | 6.73 ± 0.37 | 5.42 ± 0.098 | 4.93 ± 0.55 | 5.31 ± 0.26 | 4.17 ± 0.1 | 2.66 ± 0.17 | 5.06 ± 0.43 | 8.95 ± 0.32 | 4.45 ± 0.033 | 7.69 ± 0.31 | 4.69 ± 0.16 | 9.53 ± 0.42
MFSGLLIILVPLIVGYLIPLRQQAALKVINQLLSWMVYLILFFMGISLAFLDNLASNLLAILHYSAVSITVILLCNIAALMWLERGLPWRNHHQQEKLPSRIAMALESLKLCGVVVIGFAIGLSGLAFLQHATEASEYTLILLLFLVGIQLRNNGMTLKQIVLNRRGMIVAVVVVVSSLIGGLINAFILDLPINTALAMASGFGWYSLSGILLTESFGPVIGSAAFFNDLARELIAIMLIPGLIRRSRSTALGLCGATSMDFTLPVLQRTGGLDMVPAAIVHGFILSLLVPILIAFFSA |  |  |  |  |  |  | 3.12 |  |  | 8.87 |  | 8.67 ± 0.3
MSKLIVPQWPQPKGVAACSSTRIGGVSLPPYDSLNLGAHCGDNPDHVEENRKRLFAAGNLPSKPVWLEQVHGKDVLKLTGEPYASKRADASYSNTPGTVCAVMTADCLPVLFCNRAGTEVAAAHAGWRGLCAGVLEETVSCFADNPENILAWLGPAIGPRAFEVGGEVREAFMAVDAKASAAFIQHGDKYLADIYQLARQRLANVGVEQIFGGDRCTYTENETFFSYRRDKTTGRMASFIWLI | 5.05 ± 0.14 | 4.77 ± 0.76 | 4.885 ± 0.007 | 5.03 ± 0.24 | 4.05 ± 1 | 3.198 ± 0.027 | 5.11 ± 0.72 | 8.61 ± 0.21 | 5.03 ± 0.22 | 9.17 ± 0.77 | 5.644 ± 0.043 | 11.9 ± 0.43
MNKYTINDITRASGGFAMLAVDQREAMRMMFAAAGAPAPVADSVLTDFKVNAAKALSPYASAILVDQQFCYRQVVEQNAIAKSCAMIVAADEFIPGNGIPVDSVVIDRKINPLQIKQDGGKALKLLVLWRSDEDAQQRLDMVKEFNELCHSHGLVSIIEPVVRPPRRGDKFDREQAIIDAAKELGDSGADLYKVEMPLYGKGPQQELLCASQRLNDHINMPWVILSSGVDEKLFPRAVRVAMTAGASGFLAGRAVWASVVGLPDNELMLRDVCAPKLQQLGDIVDEMMAKRR | 5.2 ± 0.61 | 4.38 ± 0.96 | 4.42 ± 0.41 | 5.52 ± 0.98 | 4.09 ± 0.52 | 2.93 ± 0.18 | 6.51 ± 1.8 | 8.63 ± 1.5 | 4.19 ± 0.58 | 6.3 ± 0.93 | 5.05 ± 0.15 | 10.2 ± 0.62
